# Reference: patent US20040072256A1 (published 2004)
# B1: NKp46D2-Ig fusion protein (Fc fusion)
# chain: YDTPTLSVHPGPEVISGEKVTFYCRLDTATSMFLLLKEGRSSHVQRGYGKVQAEFPLGPVTTAHRGTYRCFGSYNNHAWSFPSEPVKLLVTGDIENTSLAPEDPTFPADTWGTYLLTTETGLQKDHALWDHTAQDPEPKSSDKTHTCPPCPAPEFEGAPSVFLFPPKPKDTLMISRTPEVTCVVVDVSHEDPEVKFNWYVDGVEVHNAKTKPREEQYNSTYRVVSVLTVLHQDWLNGKEYKCKVSNKALPAPIEKTISKAKGQPREPQVYTLPPSRDELTKNQVSLTCLVKGFYPSDIAVEWESNGQPENNYKTTPPVLDSDGSFFLYSKLTVDKSRWQQGNVFSCSVMHEALHNHYTQKSLSLSPGK
# modifications: sialic acid residues (binding depends on them)
# notes: Junction and leader used for secretion not described
# B2: NKp30-Ig fusion protein (Fc fusion)
# chain: LWVSQPPEIRTLEGSSAFLPCSFNASQGRLAIGSVTWFRDEVVPGKEVRNGTPEFRGRLAPLASSRFLHDHQAELHIRDVRGHDASIYVCRVEVLGLGVGTGNGTRLVVEKEHPQLGDPEPKSSDKTHTCPPCPAPEFEGAPSVFLFPPKPKDTLMISRTPEVTCVVVDVSHEDPEVKFNWYVDGVEVHNAKTKPREEQYNSTYRVVSVLTVLHQDWLNGKEYKCKVSNKALPAPIEKTISKAKGQPREPQVYTLPPSRDELTKNQVSLTCLVKGFYPSDIAVEWESNGQPENNYKTTPPVLDSDGSFFLYSKLTVDKSRWQQGNVFSCSVMHEALHNHYTQKSLSLSPGK
# B3: NKp46D1-Ig fusion protein (Fc fusion)
# chain: QQQTLPKPFIWAEPHFMVPKEKQVTICCQGNYGAVEYQLHFEGSLFAVDRPKPPERINKVKFYIPDMNSRMAGQYSCIYRVGELWSEPSNLLDLVVTEMDPEPKSSDKTHTCPPCPAPEFEGAPSVFLFPPKPKDTLMISRTPEVTCVVVDVSHEDPEVKFNWYVDGVEVHNAKTKPREEQYNSTYRVVSVLTVLHQDWLNGKEYKCKVSNKALPAPIEKTISKAKGQPREPQVYTLPPSRDELTKNQVSLTCLVKGFYPSDIAVEWESNGQPENNYKTTPPVLDSDGSFFLYSKLTVDKSRWQQGNVFSCSVMHEALHNHYTQKSLSLSPGK
# notes: Junction between domain and Fc not described
# B4: KIR-1-Ig fusion protein (Fc fusion)
# chain: HEGVHRKPSLLAHPGRLVKSEETVILQCWSDVMFEHFLLHREGMFNDTLRLIGEHHDGVSKANFSISRMTQDLAGTYRCYGSVTHSPYQVSAPSDPLDIVIIGLYEKPSLSAQLGPTVLAGENVTLSCSSRSSYDMYHLSREGEAHERRLPAGPKVNGTFQADFPLGPATHGGTYRCFGSFHDSPYEWSKSSDPLLVSVTGNPSNSWPSPTEPSSKTGNPRHLH
# notes: extracellular domain; not shown: Fc portion of human IgG1
# B5: NKAT-8-Ig fusion protein (Fc fusion)
# chain: QEGVHRKPSFLALPGHLVKSEETVILQCWSDVMFEHFLLHREGKFNNTLHLIGEHHDGVSKANFSIGPMMPVLAGTYRCYGSVPHSPYQLSAPSDPLDMVIIGLYEKPSLSAQPGPTVQAGENVTLSCSSRSSYDMYHLSREGEAHERRLPAVRSINGTFQADFPLGPATHGGTYRCFGSFRDAPYEWSNSSDPLLVSVTGNPSNSWPSPTEPSSKTGNPRHLH
# notes: as for B4
# B6: NKp44-Ig fusion protein (Fc fusion)
# chain: QSKAQVLQSVAGQTLTVRCQYPPTGSLYEKKGWCKEASALVCIRLVTSSKPRTMAWTSRFTIWDDPDAGFFTVTMTDLREEDSGHYWCRIYRPSDNSVSKSVRFYLVVSPASASTQTPWTPRDLVSSQTQTQSCVPPTAGARQAPESPSTIPVPSQPQNSTLRPGPAAPDPEPKSSDKTHTCPPCPAPEFEGAPSVFLFPPKPKDTLMISRTPEVTCVVVDVSHEDPEVKFNWYVDGVEVHNAKTKPREEQYNSTYRVVSVLTVLHQDWLNGKEYKCKVSNKALPAPIEKTISKAKGQPREPQVYTLPPSRDELTKNQVSLTCLVKGFYPSDIAVEWESNGQPENNYKTTPPVLDSDGSFFLYSKLTVDKSRWQQGNVFSCSVMHEALHNHYTQKSLSLSPGK
# modifications: sialylated oligosaccharides (binding to HA depends on them)
# notes: Made in COS-7, purified on protein G
# Assays:
# [1] = molecular target: T1, hemagglutinin-neuraminidase (HN) glycoprotein of Sendai virus (Sendai virus); experiment: flow cytometry, SV-infected vs uninfected 721.221 cells
# T1 construct: whole, on cells; also called SV HN; Sendai HN
# T1 sequence (P19758 whole entry): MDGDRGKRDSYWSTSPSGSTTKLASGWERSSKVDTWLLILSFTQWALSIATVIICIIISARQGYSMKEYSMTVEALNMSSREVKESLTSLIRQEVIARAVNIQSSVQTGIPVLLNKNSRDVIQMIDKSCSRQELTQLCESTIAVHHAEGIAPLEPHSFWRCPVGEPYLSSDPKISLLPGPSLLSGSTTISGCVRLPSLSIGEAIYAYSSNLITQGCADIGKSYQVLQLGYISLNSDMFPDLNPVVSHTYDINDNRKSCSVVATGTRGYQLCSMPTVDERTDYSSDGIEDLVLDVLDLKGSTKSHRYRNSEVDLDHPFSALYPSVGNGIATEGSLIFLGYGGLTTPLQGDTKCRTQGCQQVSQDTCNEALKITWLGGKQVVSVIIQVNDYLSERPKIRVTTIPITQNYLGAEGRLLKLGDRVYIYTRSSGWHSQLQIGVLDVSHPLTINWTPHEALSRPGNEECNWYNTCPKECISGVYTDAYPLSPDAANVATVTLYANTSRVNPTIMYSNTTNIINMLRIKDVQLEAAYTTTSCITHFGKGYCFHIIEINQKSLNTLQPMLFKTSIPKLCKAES
# [2] = molecular target: T2, hemagglutinin (HA) of Influenza virus A/PR/8/34 (H1N1) (Influenza virus A/PR/8/34 (H1N1), UniProt P03452 18-565); experiment: flow cytometry on IV-infected vs uninfected 1106mel cells
# T2 construct: whole, on cells; On IV-infected 1106mel cells; also called IV HA; viral HA
# [3] = molecular target: T2, hemagglutinin (HA) of Influenza virus …; experiment: flow cytometry on IV-infected 1106mel cells (FIG. 11)
# [4] = molecular target: T1, hemagglutinin-neuraminidase (HN) …; experiment: flow cytometry, 293T cells transfected with Sendai HN cDNA vs mock
# [5] = molecular target: T2, hemagglutinin (HA) of Influenza virus …; experiment: flow cytometry, IV-infected vs uninfected 1106mel cells
binder,measurement,setting,value
B1,fold increase in staining on SV infection,[1],~10 fold
B2,binding result,[2],no binding
B3,binding result,[3],no binding
B4,binding result,[2],no binding
B5,binding result,[2],no binding
B6,fold increase in staining on HN transfection,[4],2 fold
same,fold increase in staining on SV infection,[1],10 fold
same,fold increase in staining on IV infection,[5],~4 fold
